Assay results taken from patent publication US20250092426, “CAS ENDONUCLEASES AND RELATED METHODS” (Flagship Pioneering Innovations VII, LLC, published 2025).

Target: T1, CasEnd-4 (synthetic construct)
T1 chain: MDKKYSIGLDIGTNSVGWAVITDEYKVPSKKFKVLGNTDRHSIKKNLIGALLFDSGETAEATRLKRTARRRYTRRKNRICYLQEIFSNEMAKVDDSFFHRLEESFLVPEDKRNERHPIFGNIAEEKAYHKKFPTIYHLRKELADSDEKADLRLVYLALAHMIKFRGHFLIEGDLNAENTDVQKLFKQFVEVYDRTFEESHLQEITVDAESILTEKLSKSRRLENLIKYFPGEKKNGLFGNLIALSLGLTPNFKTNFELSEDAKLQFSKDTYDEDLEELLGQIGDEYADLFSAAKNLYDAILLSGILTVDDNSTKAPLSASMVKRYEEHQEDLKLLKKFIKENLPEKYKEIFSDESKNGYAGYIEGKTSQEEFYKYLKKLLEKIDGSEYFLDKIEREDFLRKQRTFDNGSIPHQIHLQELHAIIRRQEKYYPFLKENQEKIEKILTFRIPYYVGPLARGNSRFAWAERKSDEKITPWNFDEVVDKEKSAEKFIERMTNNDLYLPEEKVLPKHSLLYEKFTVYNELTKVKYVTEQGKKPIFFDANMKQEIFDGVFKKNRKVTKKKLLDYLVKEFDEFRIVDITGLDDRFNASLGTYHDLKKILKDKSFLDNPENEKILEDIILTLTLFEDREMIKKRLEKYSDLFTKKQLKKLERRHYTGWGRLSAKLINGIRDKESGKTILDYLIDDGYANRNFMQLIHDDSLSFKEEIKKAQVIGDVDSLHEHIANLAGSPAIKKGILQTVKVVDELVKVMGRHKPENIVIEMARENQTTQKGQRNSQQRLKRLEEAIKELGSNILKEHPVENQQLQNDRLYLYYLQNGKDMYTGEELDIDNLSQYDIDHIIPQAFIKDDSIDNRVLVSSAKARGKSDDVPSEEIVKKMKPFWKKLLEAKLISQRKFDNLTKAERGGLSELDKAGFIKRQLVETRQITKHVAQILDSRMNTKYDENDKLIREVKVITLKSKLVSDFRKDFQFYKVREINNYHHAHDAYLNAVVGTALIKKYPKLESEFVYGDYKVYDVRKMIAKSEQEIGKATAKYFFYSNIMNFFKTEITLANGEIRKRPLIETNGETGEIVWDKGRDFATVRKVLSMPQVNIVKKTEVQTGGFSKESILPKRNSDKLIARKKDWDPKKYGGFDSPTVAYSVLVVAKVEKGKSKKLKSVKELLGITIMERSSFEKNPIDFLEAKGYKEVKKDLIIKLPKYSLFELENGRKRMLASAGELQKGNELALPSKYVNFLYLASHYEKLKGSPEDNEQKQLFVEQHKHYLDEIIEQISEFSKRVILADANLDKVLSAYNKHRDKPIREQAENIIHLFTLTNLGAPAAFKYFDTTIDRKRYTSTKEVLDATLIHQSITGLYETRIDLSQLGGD
Assay: cell_activity; +++; HEK293T; PAM not stated
Outline: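 BFP-to-GFP conversion via reverse transcriptase fusion with each Cas endonuclease plus template RNA: 200 ng of each plasmid nucleofected into 250,000 BFP-expressing HEK293T cells (program DS-150). Percent GFP+ cells by flow cytometry at day 4 measured editing.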

B1: BFP-to-GFP template RNA ; BFP reporter protospacer (ssRNA ; dsDNA)
RNA: GCCGAAGCACUGCACGCCGUGUUUUAGAGCUAGAAAUAGCAAGUUAAAAUAAGGCUAGUCCGUUAUCAACUUGAAAAAGUGGCACCGAGUCGGUGCACCCUGACGUACGGCGUGCAGUGCUU
DNA 1: GCCGAAGCACTGCACGCCGT
DNA 2: ACGGCGTGCAGTGCTTCGGC
activity: ≥ 100 % of reference
